The source of these data is the supplement of paper PMC12042874.

± gives the uncertainty stated by the source.

A short description of the data set: amyloid nucleation score (Sup35N fusion, yeast selection) (log enrichment); library NNK3; higher = more nucleation; inactive = no reads after selection. An outline of the steps: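 Psi-negative yeast expressed Sup35N fused to peptides of 20 random codons. They were induced 24 hours with 100 μM copper sulfate, grown 7 days at 30°C without adenine and uracil, and their plasmid inserts from input and output were Illumina-sequenced. The nucleation score is the DiMSum log enrichment of output over input reads, centred on the mode score of non-aggregating sequences. Sequences with under 100 input reads were excluded.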
Take NVPLKWLTWYNRRAATWVEM: the amyloid nucleation score entry was “inactive”.
To NVQRNVNAE belongs “inactive”; to NVTNSRHHLQFGYMRAMVNV, “inactive”.
For the substance NVTTNRVTKLLAN, the amyloid nucleation score result is “inactive”.
To NVVFSFMVTRCDRLWS belongs 0.661 ± 0.27; to NVVSWGHDLYGKKAPALWEV, “inactive”; to NVVYTFPLYASDMGIGV, “inactive”.
Next, NVYIVSIRMFCDYRVTAPKT: 2.35 ± 0.068; NVYSPKRVLSGCLSPDISEF: “inactive”.
Next, NWGMTNAFFISGKRSGMSSM: 0.42 ± 0.38.
In the case of NWLCDRVRCCWKLNNNDMKL, the amyloid nucleation score is -0.22 ± 0.88.
To NWVAKMGFVHGSSKRYSPPK belongs 0.111 ± 0.61; to NYDIASLFTTNKSFV, “inactive”.
Next, NYDIILMLGWSVTFKLKVRF: -0.36 ± 1.1; NYFCDIFNLSVNSILNYY: 0.68 ± 0.19; NYGAN: “inactive”.
With NYGPGHRGGSN, the amyloid nucleation score result was “inactive”.
Take NYICVK: the amyloid nucleation score result was “inactive”.
Turning to NYIWLFVLYAIVRFSHWLDF, the amyloid nucleation score turned out to be 0.779 ± 0.14.
To NYRRTCTVLSDGYFNYIT belongs “inactive”; to NYTSCNFNVYNSMFFRRYTM, 3.2 ± 0.053; to NYVLGGCNLGSSGCRVRLSC, “inactive”.
In the case of NYVLRSMSGTRFRALWRVAP, the amyloid nucleation score entry is “inactive”.
Turning to NYVPQSGYNVDNVLNILTKL, the amyloid nucleation score entry is “inactive”.
Next, NYYRC: “inactive”.
Regarding PAQLHNTVHL, the amyloid nucleation score result is “inactive”.
To PCASLM belongs “inactive”; to PCRMKLVFFRDE, “inactive”.
Substance PCRPGRSRVVHS registered an amyloid nucleation score of 0.614 ± 0.27.
Next, PCSGLKCSKGCWCNKICKYK: 1.37 ± 0.13; PDEAVGV: -1.19 ± 2.5; PDGTILMCGRPMCYIVYGAK: “inactive”.
To PDLITLIFGSHFGKCSFISY belongs “inactive”; to PDLLTRILERPGVSECFMQW, “inactive”.
Next, PDLVNISSSPYRRCGYRWVD: “inactive”; PDMSNIQTFWDSRVMGRTR: “inactive”.
For PDYEHKVSLLEGKRAYLEHF, the amyloid nucleation score entry is “inactive”.
Next, PDYGMSLCHLPTWMW: “inactive”; PEGPDLTLILAIKPKLSCRG: “inactive”; PEMSSSGAKAKYPTSMTS: “inactive”.
For the substance PEYCKAWLRWKPISVYTQVW, the amyloid nucleation score result is “inactive”.
Next, PFDHTSHNVVRKLLSSELLR: “inactive”.
Next, PFLCFRIYFSACWINLTLNL: 1.78 ± 0.086; PFLLSFKGNMQADSPGC: “inactive”.
For the substance PFLLSMNVGQGFRRV, the amyloid nucleation score entry is “inactive”.
To PFNLPMARNETWGTVQAKIR belongs “inactive”; to PFPFSNLLERV, 0.364 ± 0.34.
Next, PFTLSSMVSVLPMGFRIGDK: “inactive”; PFTPFSHVR: “inactive”; PFYFCGHSQYSWTAW: “inactive”.
Next, PGISRNFVNGPRWSMFS: “inactive”; PGLCGNGHNDHKTVNIEVYH: “inactive”; PGNEEVGTNCMLTSNLTYVH: “inactive”.
Take PGVDERT: the amyloid nucleation score result is “inactive”.
To PGWVDHIEAISRTVRGWFGP belongs 1.77 ± 0.12.
Next, PHNGHKNSWCTVPGSSCRSV: 1.14 ± 0.18; PIILKIPV: “inactive”.
To PINWECWDQELEGLHDMQAI belongs “inactive”.
Substance PIPHML came in with an amyloid nucleation score of -0.592 ± 0.75.
Next, PIPLIPFE: “inactive”; PIRWYRRSLFLCWLTDDRLG: “inactive”.
Next, PIYDRFTSKIACLNMMVDLR: 0.101 ± 0.29.
For PKISFSGWM, the amyloid nucleation score result was “inactive”.
For PLKIYIGNQLV, the amyloid nucleation score result was “inactive”.
Next, PLLGSIFRFWWRGDTLMYRL: “inactive”; PLLMDPTFPFAIRTDMVSLR: “inactive”; PLMRTGEDISPERQRDGRGK: “inactive”.
To PLSNGELFRNATLNDGIWGE belongs “inactive”; to PLTLIQDQQGRVSFSKA, “inactive”.
To PLTVI belongs “inactive”.
Consider PMHLTKVHVVRNFVTQSTRG, for which the amyloid nucleation score entry is “inactive”.
Next, PMLVALWCMGKTN: -0.521 ± 1.4; PMQAS: “inactive”.
Next, PNEMGSSVMENNWTIHNFGM: “inactive”; PNFLRTCLLTYRGRSY: “inactive”; PNGALK: “inactive”.
Next, PNGHLLYMYFFMRDGSSDRG: “inactive”; PNHEFYRARFRLCNAICTTV: “inactive”.
For PNQYWQ, the amyloid nucleation score result is “inactive”.
Turning to PPCYKI, the amyloid nucleation score entry is “inactive”.
Consider PQLWSMYHSGP, for which the amyloid nucleation score was -0.586 ± 1.4.
To PRMRFILGFVIIEKENDRVK belongs -0.431 ± 0.62.
To PRVFGRVTSRMFLDFVLNF belongs 0.982 ± 0.14.
To PSHIGLL belongs “inactive”.
With PSQAFS, the amyloid nucleation score entry was “inactive”.
For PSQHMRSARRQVGKSTSNEG, the amyloid nucleation score result was “inactive”.
To PSSRT belongs “inactive”; to PTAHYWSVRSRSIDPPACQW, “inactive”; to PTFVPARSRYSLNVFNPLDE, “inactive”.
To PTKDVMVGSK belongs “inactive”.
To PTSSKLKFAFINYVLTVSTS belongs “inactive”.
For the substance PTSVY, the amyloid nucleation score amounted to 0.481 ± 0.32.
Consider PTYAC, for which the amyloid nucleation score result is “inactive”.
Regarding PVDIVHVHAIRIMFMEGSDV, the amyloid nucleation score entry was “inactive”.
Next, PVEWP: -0.114 ± 0.78.
With PVGVMTVSDLLFDYFAFRSF, the amyloid nucleation score result is “inactive”.
PVITSYSSIYVSCDIVW: the amyloid nucleation score entry is “inactive”.
Next, PVLGPAEGITIGRGV: “inactive”; PVLLIRSKFDQRRAWSFHTV: “inactive”.
To PVLWPLFKYVCFLTW belongs “inactive”; to PVSLNDIYIIKCANKNYEVI, “inactive”.
To PVWLCSLPR belongs “inactive”.
For the substance PWKLYYNFQVLLLNAGHLML, the amyloid nucleation score result was “inactive”.
Turning to PYFRMVNYYFFMTVSGRFNF, the amyloid nucleation score is -0.507 ± 1.
Regarding PYLRMG, the amyloid nucleation score entry was “inactive”.
Next, PYMITILHFISHATVLNTSV: “inactive”; PYSKELVHVTSSSATFTRCE: “inactive”.
To PYVQRNVCCAPV belongs “inactive”; to QAIQPSMQGLWQRALTSRSP, “inactive”.
QAQVDKCLLARFVGL: the amyloid nucleation score entry is “inactive”.
To QATFGWTANSSLFFSRDFLA belongs “inactive”; to QAVTMRTGVKCYQIGRAWIG, -0.313 ± 0.84.
Next, QCFKDRMWHGICREPVAKIG: “inactive”; QDALVSCWKFGAVSDQCDYW: “inactive”.
To QDEPTMNVQ belongs “inactive”; to QDLGECN, “inactive”; to QESLDANFGLIVCYADLAED, “inactive”.
Regarding QFESSSFRYVAVCSVCAFSI, the amyloid nucleation score was 1.73 ± 0.099.
To QFFSISIFTWVYLVENVADI belongs “inactive”.
Next, QFITLCLSSRSEVSVPFSLW: 0.997 ± 0.12.
To QFKYHYYNLCWSTSVFSFKN belongs 0.837 ± 0.22; to QGFFGDNNAV, “inactive”; to QGNSIWMYLGWVNKTML, “inactive”.
QHALCSTAIRILLSV: the amyloid nucleation score result is “inactive”.
To QHYDDSNRFYNK belongs “inactive”.
To QICTQFRSG belongs “inactive”; to QIFLVKPMSDFSCNSSRYTL, -0.423 ± 0.76; to QILFTQILLNSGEEGLSFVS, 0.479 ± 0.18.
Next, QIVFIRPKNL: “inactive”; QKLSCPMFLMAIIVSKITKM: “inactive”.
With QKVLLWTSGPSSSRHRTEEF, the amyloid nucleation score result is “inactive”.
To QLCLKGSPIVVVRCLRHNKI belongs “inactive”.
Next, QLGFWKELSSSHS: “inactive”.
Next, QLLGNGP: “inactive”.
